T1: PARD3B_1, Q8TEW8
T1 sequence (Q8TEW8 196-299, limits assumed, looked up): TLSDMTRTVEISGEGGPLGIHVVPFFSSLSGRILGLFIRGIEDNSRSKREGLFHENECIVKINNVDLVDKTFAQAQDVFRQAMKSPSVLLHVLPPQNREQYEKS

T2: LIN7A, O14910
T2 sequence (O14910 103-200, limits assumed, looked up): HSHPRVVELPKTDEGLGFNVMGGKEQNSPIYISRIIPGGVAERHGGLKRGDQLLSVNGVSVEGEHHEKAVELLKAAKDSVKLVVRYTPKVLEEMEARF

T3: DLG3_2, Q92796
T3 sequence (Q92796 221-321, limits assumed, looked up): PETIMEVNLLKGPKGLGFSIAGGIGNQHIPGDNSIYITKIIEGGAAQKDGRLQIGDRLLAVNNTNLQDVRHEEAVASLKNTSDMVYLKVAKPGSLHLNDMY

T4: RADIL, Q96JH8
T4 sequence (Q96JH8 971-1071, limits assumed, looked up): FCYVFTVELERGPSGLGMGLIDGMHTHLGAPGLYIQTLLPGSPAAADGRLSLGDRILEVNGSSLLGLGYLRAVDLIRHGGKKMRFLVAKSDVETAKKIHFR

T5: TJP3_3, O95049
T5 sequence (O95049 375-456, limits assumed, looked up): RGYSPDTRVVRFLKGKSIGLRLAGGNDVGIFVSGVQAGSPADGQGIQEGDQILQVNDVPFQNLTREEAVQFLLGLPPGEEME

T6: NHERF3_1, Q5T2W1
T6 sequence (Q5T2W1 4-100, limits assumed, looked up): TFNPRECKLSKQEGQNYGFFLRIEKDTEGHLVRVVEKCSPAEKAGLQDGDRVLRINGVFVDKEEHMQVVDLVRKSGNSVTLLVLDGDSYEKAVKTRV

T7: DFNB31_3, Q9P202
T7 sequence (Q9P202 811-907, limits assumed, looked up): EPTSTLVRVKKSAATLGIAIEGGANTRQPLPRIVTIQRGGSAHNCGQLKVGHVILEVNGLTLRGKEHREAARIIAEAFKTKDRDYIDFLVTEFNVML

T8: TX1BP3, O14907
T8 sequence (O14907 10-122, limits assumed, looked up): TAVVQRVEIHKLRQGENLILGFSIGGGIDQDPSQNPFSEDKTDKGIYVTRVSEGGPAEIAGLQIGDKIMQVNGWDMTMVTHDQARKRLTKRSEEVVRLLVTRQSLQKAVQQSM

T9: APBA3_1, O96018
T9 sequence (O96018 389-490, limits assumed, looked up): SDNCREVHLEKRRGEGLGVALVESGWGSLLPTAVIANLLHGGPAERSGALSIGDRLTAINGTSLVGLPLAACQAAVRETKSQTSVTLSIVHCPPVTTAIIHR

T10: SNTG1, Q9NSN8
T10 sequence (Q9NSN8 52-150, limits assumed, looked up): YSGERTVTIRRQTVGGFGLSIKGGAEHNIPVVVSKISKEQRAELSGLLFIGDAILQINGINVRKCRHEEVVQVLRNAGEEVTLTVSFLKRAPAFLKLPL

T11: SYNJ2BP, P57105
T11 sequence (P57105 8-110, limits assumed, looked up): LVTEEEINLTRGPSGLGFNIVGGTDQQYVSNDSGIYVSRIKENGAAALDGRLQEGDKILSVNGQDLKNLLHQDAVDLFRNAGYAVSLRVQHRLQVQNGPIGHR


Columns and labels:
Experiment in all cases: holdup assay
Parameters in all cases: key: below the threshold = too weak to quantify, mostly under pKd 3.1 to 4
Conditions in all cases: plain residues with an end cap or a label only (N-terminal biotin on a linker: ado-ado)
NOS1, P29475 = target: NOS1, P29475
FRMPD2_1, Q68DX3 = target: FRMPD2_1, Q68DX3
GORASP2, Q9H8Y8 = target: GORASP2, Q9H8Y8
MAGI1_1, Q96QZ7 = target: MAGI1_1, Q96QZ7
PARD3B_1, Q8TEW8 = target: T1, PARD3B_1, Q8TEW8
DLG5_1, Q8TDM6 = target: DLG5_1, Q8TDM6
GRIP2_5, Q9C0E4 = target: GRIP2_5, Q9C0E4
LIN7A, O14910 = target: T2, LIN7A, O14910
DLG3_2, Q92796 = target: T3, DLG3_2, Q92796
DLG2_2, Q15700 = target: DLG2_2, Q15700
RADIL, Q96JH8 = target: T4, RADIL, Q96JH8
FRMPD3, Q5JV73 = target: FRMPD3, Q5JV73
IL16_4, Q14005 = target: IL16_4, Q14005
Inadl_9, Q8NI35 = target: Inadl_9, Q8NI35
FRMPD4, Q14CM0 = target: FRMPD4, Q14CM0
CASK, O14936 = target: CASK, O14936
MAGI2_3, Q86UL8 = target: MAGI2_3, Q86UL8
TJP3_3, O95049 = target: T5, TJP3_3, O95049
NHERF3_1, Q5T2W1 = target: T6, NHERF3_1, Q5T2W1
DFNB31_3, Q9P202 = target: T7, DFNB31_3, Q9P202
TX1BP3, O14907 = target: T8, TX1BP3, O14907
APBA3_1, O96018 = target: T9, APBA3_1, O96018
MAGI2_6, Q86UL8 = target: MAGI2_6, Q86UL8
IL16_3, Q14005 = target: IL16_3, Q14005
SNTG1, Q9NSN8 = target: T10, SNTG1, Q9NSN8
SYNJ2BP, P57105 = target: T11, SYNJ2BP, P57105
DLG2_3, Q15700 = target: DLG2_3, Q15700

Chain of IL16_3, Q14005 (Q14005 1107-1207): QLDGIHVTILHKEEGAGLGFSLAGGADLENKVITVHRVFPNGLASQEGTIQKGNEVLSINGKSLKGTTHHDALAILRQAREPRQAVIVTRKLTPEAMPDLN
Chain of NOS1, P29475 (P29475 9-101): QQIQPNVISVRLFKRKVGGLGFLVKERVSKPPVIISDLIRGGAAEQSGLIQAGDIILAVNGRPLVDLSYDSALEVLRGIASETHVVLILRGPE
Chain of FRMPD2_1, Q68DX3 (Q68DX3 770-861): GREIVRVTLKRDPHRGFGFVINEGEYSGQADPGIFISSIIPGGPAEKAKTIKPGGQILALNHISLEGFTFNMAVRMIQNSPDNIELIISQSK
Chain of DLG5_1, Q8TDM6 (Q8TDM6 617-713): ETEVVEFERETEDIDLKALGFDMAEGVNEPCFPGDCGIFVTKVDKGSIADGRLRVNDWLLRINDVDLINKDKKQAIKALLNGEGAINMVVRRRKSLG
Chain of MAGI2_3, Q86UL8 (Q86UL8 600-682): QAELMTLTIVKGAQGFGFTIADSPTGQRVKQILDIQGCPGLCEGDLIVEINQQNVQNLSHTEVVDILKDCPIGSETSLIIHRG
Chain of FRMPD3, Q5JV73 (Q5JV73 12-100): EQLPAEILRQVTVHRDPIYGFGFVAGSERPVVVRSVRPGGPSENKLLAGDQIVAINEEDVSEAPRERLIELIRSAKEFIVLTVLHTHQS
Chain of MAGI1_1, Q96QZ7 (Q96QZ7 1-106): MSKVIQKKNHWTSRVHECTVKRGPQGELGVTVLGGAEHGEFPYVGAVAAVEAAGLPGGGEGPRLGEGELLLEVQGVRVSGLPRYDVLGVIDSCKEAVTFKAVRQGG
Chain of MAGI2_6, Q86UL8 (Q86UL8 1141-1229): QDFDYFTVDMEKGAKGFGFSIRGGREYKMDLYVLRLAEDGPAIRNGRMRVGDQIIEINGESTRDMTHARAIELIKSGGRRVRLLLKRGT
Chain of FRMPD4, Q14CM0 (Q14CM0 67-160): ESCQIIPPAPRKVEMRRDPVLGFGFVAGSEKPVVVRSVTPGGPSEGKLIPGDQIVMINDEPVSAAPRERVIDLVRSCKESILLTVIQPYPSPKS
Chain of IL16_4, Q14005 (Q14005 1229-1329): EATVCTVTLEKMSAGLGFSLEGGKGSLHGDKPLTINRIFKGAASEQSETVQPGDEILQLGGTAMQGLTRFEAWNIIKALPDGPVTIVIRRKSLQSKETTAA
Chain of CASK, O14936 (O14936 487-570): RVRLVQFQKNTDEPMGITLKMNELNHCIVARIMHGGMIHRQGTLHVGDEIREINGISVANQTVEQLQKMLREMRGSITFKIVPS
Chain of GRIP2_5, Q9C0E4 (Q9C0E4 544-642): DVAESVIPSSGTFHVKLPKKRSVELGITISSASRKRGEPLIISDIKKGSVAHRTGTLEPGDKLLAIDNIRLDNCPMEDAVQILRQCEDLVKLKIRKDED
Chain of Inadl_9, Q8NI35 (Q8NI35 1530-1615): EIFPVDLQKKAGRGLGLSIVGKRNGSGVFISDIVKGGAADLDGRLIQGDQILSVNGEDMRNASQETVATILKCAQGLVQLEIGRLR

Row | pKd (NOS1, P29475) | pKd (FRMPD2_1, Q68DX3) | pKd (GORASP2, Q9H8Y8) | pKd (MAGI1_1, Q96QZ7) | pKd (PARD3B_1, Q8TEW8) | pKd (DLG5_1, Q8TDM6) | pKd (GRIP2_5, Q9C0E4) | pKd (LIN7A, O14910) | pKd (DLG3_2, Q92796) | pKd (DLG2_2, Q15700) | pKd (RADIL, Q96JH8) | pKd (FRMPD3, Q5JV73) | pKd (IL16_4, Q14005) | pKd (Inadl_9, Q8NI35) | pKd (FRMPD4, Q14CM0) | pKd (CASK, O14936) | pKd (MAGI2_3, Q86UL8) | pKd (TJP3_3, O95049) | pKd (NHERF3_1, Q5T2W1) | pKd (DFNB31_3, Q9P202) | Binder | other results
1 | 4.07 | below the threshold | 4.18 | below the threshold | 5 | below the threshold | below the threshold | below the threshold | 4.06 | below the threshold | 4.53 | below the threshold | 3.57 | 4.6 | below the threshold | below the threshold | below the threshold | 3.67 | below the threshold | 3.5 | LTAQEQPVYI [APBA1, Q02410] | pKd (TX1BP3, O14907): below the threshold; pKd (APBA3_1, O96018): below the threshold; pKd (MAGI2_6, Q86UL8): below the threshold; pKd (IL16_3, Q14005): below the threshold; pKd (SNTG1, Q9NSN8): below the threshold; pKd (SYNJ2BP, P57105): below the threshold; pKd (DLG2_3, Q15700): 3.68
2 | below the threshold | below the threshold | below the threshold | below the threshold | below the threshold | below the threshold | below the threshold | below the threshold | 4.77 | 4.62 | 3.89 | below the threshold | below the threshold | 3.69 | below the threshold | below the threshold | below the threshold | below the threshold | below the threshold | below the threshold | PLDSQQHTEV [FAT1, Q14517] | pKd (TX1BP3, O14907): 3.85; pKd (APBA3_1, O96018): below the threshold; pKd (MAGI2_6, Q86UL8): 4.26; pKd (IL16_3, Q14005): below the threshold; pKd (SNTG1, Q9NSN8): 4.04; pKd (SYNJ2BP, P57105): 4.62; pKd (DLG2_3, Q15700): below the threshold
3 | 4.35 | below the threshold | 3.6 | below the threshold | 4.41 | below the threshold | below the threshold | below the threshold | below the threshold | below the threshold | 3.94 | below the threshold | below the threshold | 3.5 | 3.88 | below the threshold | below the threshold | below the threshold | 4.79 | 3.5 | SRPTKGPTLL [PLEKHH2, Q8IVE3] | pKd (TX1BP3, O14907): 4.01; pKd (APBA3_1, O96018): below the threshold; pKd (MAGI2_6, Q86UL8): below the threshold; pKd (IL16_3, Q14005): below the threshold; pKd (SNTG1, Q9NSN8): below the threshold; pKd (SYNJ2BP, P57105): below the threshold; pKd (DLG2_3, Q15700): below the threshold

Reference: paper PMC9482650, “Quantitative fragmentomics allow affinity mapping of interactomes” (Nature Communications, 2022)
